This note sets out measurements from patent US20220204580A1 (AstraZeneca / MedImmune, published 2022).

Numbered stars: 1 amine (or outer) side, 2 acyl side, 3 side chain; on linkers, the order of the positions; unused ones are H or OH. Bridge positions count the residues as written; N and C are the ends. Square brackets hold non-standard residues; d marks the D form. Side chains are listed from the residue outwards. Ends that are not written are not given here. * marks the point of attachment. C18 diacid = O=C(O)CCCCCCCCCCCCCCCCC(=O)*; γGlu = O=C(O)[C@H](CCC(=O)[*:2])N[*:1]; Aib = CC(C)(N)C(=O)O

Sequences and labels used below:
T1: human calcitonin receptor (human, UniProt P30988 25-474)
T1 sequence (looked up): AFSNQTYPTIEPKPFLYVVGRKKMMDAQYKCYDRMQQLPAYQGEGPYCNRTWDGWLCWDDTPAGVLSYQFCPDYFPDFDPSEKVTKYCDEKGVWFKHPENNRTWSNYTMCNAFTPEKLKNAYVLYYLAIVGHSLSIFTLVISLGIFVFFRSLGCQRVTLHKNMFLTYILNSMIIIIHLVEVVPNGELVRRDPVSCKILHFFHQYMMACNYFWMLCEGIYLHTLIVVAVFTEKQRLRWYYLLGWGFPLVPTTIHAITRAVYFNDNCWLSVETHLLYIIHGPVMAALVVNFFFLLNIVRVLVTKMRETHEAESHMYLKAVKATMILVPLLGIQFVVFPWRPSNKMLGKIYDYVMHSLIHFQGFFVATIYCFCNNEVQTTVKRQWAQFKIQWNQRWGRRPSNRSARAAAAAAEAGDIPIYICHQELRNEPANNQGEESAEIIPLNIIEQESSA

T2: human amylin receptor (calcitonin receptor co-expressed with receptor activity modifying protein, RAMP3) (human, UniProt P30988 25-474; O60896 24-148)
T2 sequence (looked up) 1: T1 sequence (looked up)
T2 sequence (looked up) 2: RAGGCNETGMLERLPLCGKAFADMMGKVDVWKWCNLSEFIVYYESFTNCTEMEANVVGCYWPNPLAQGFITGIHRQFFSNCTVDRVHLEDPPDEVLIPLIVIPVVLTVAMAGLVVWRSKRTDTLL

B1: Peptide 81 (SEQ ID NO: 81) (peptide)
peptide: K([γGlu-C18 diacid])KCNTATCATQRLANFLVHSS[Aib]NFGPILPPTNV[Aib]SNTY-NH2
modifications: disulfide 3-8; N-terminus assumed
SMILES: CC[C@H](C)[C@H](NC(=O)[C@@H]1CCCN1C(=O)CNC(=O)[C@H](Cc1ccccc1)NC(=O)[C@H](CC(N)=O)NC(=O)C(C)(C)NC(=O)[C@H](CO)NC(=O)[C@H](CO)NC(=O)[C@H](Cc1c[nH]cn1)NC(=O)[C@@H](NC(=O)[C@H](CC(C)C)NC(=O)[C@H](Cc1ccccc1)NC(=O)[C@H](CC(N)=O)NC(=O)[C@H](C)NC(=O)[C@H](CC(C)C)NC(=O)[C@H](CCCNC(=N)N)NC(=O)[C@H](CCC(N)=O)NC(=O)[C@@H](NC(=O)[C@H](C)NC(=O)[C@@H]1CSSC[C@H](NC(=O)[C@H](CCCCN)NC(=O)[C@@H](N)CCCCNC(=O)CC[C@H](NC(=O)CCCCCCCCCCCCCCCCC(=O)O)C(=O)O)C(=O)N[C@@H](CC(N)=O)C(=O)N[C@@H]([C@@H](C)O)C(=O)N[C@@H](C)C(=O)N[C@@H]([C@@H](C)O)C(=O)N1)[C@@H](C)O)C(C)C)C(=O)N[C@@H](CC(C)C)C(=O)N1CCC[C@H]1C(=O)N1CCC[C@H]1C(=O)N[C@H](C(=O)N[C@@H](CC(N)=O)C(=O)N[C@H](C(=O)NC(C)(C)C(=O)N[C@@H](CO)C(=O)N[C@@H](CC(N)=O)C(=O)N[C@H](C(=O)N[C@@H](Cc1ccc(O)cc1)C(N)=O)[C@@H](C)O)C(C)C)[C@@H](C)O
B2: Peptide 83 (SEQ ID NO: 83) (peptide)
peptide: K([γGlu-C18 diacid])KCNTATCATQRLANFLVHSS[Aib]NFGPILPPTNVGSN[Aib]Y-NH2
modifications: disulfide 3-8; N-terminus assumed
SMILES: CC[C@H](C)[C@H](NC(=O)[C@@H]1CCCN1C(=O)CNC(=O)[C@H](Cc1ccccc1)NC(=O)[C@H](CC(N)=O)NC(=O)C(C)(C)NC(=O)[C@H](CO)NC(=O)[C@H](CO)NC(=O)[C@H](Cc1c[nH]cn1)NC(=O)[C@@H](NC(=O)[C@H](CC(C)C)NC(=O)[C@H](Cc1ccccc1)NC(=O)[C@H](CC(N)=O)NC(=O)[C@H](C)NC(=O)[C@H](CC(C)C)NC(=O)[C@H](CCCNC(=N)N)NC(=O)[C@H](CCC(N)=O)NC(=O)[C@@H](NC(=O)[C@H](C)NC(=O)[C@@H]1CSSC[C@H](NC(=O)[C@H](CCCCN)NC(=O)[C@@H](N)CCCCNC(=O)CC[C@H](NC(=O)CCCCCCCCCCCCCCCCC(=O)O)C(=O)O)C(=O)N[C@@H](CC(N)=O)C(=O)N[C@@H]([C@@H](C)O)C(=O)N[C@@H](C)C(=O)N[C@@H]([C@@H](C)O)C(=O)N1)[C@@H](C)O)C(C)C)C(=O)N[C@@H](CC(C)C)C(=O)N1CCC[C@H]1C(=O)N1CCC[C@H]1C(=O)N[C@H](C(=O)N[C@@H](CC(N)=O)C(=O)N[C@H](C(=O)NCC(=O)N[C@@H](CO)C(=O)N[C@@H](CC(N)=O)C(=O)NC(C)(C)C(=O)N[C@@H](Cc1ccc(O)cc1)C(N)=O)C(C)C)[C@@H](C)O
B3: Peptide 80 (SEQ ID NO: 80) (peptide)
peptide: K([γGlu-C18 diacid])KCNTATCATQRLANFLVHSS[Aib]NFGPILPPT[Aib]VGSNTY-NH2
modifications: disulfide 3-8; N-terminus assumed
SMILES: CC[C@H](C)[C@H](NC(=O)[C@@H]1CCCN1C(=O)CNC(=O)[C@H](Cc1ccccc1)NC(=O)[C@H](CC(N)=O)NC(=O)C(C)(C)NC(=O)[C@H](CO)NC(=O)[C@H](CO)NC(=O)[C@H](Cc1c[nH]cn1)NC(=O)[C@@H](NC(=O)[C@H](CC(C)C)NC(=O)[C@H](Cc1ccccc1)NC(=O)[C@H](CC(N)=O)NC(=O)[C@H](C)NC(=O)[C@H](CC(C)C)NC(=O)[C@H](CCCNC(=N)N)NC(=O)[C@H](CCC(N)=O)NC(=O)[C@@H](NC(=O)[C@H](C)NC(=O)[C@@H]1CSSC[C@H](NC(=O)[C@H](CCCCN)NC(=O)[C@@H](N)CCCCNC(=O)CC[C@H](NC(=O)CCCCCCCCCCCCCCCCC(=O)O)C(=O)O)C(=O)N[C@@H](CC(N)=O)C(=O)N[C@@H]([C@@H](C)O)C(=O)N[C@@H](C)C(=O)N[C@@H]([C@@H](C)O)C(=O)N1)[C@@H](C)O)C(C)C)C(=O)N[C@@H](CC(C)C)C(=O)N1CCC[C@H]1C(=O)N1CCC[C@H]1C(=O)N[C@H](C(=O)NC(C)(C)C(=O)N[C@H](C(=O)NCC(=O)N[C@@H](CO)C(=O)N[C@@H](CC(N)=O)C(=O)N[C@H](C(=O)N[C@@H](Cc1ccc(O)cc1)C(N)=O)[C@@H](C)O)C(C)C)[C@@H](C)O
B4: Peptide 82 (SEQ ID NO: 82) (peptide)
peptide: K([γGlu-C18 diacid])KCNTATCATQRLANFLVHSS[Aib]NFGPILPPTNVGS[Aib]TY-NH2
modifications: disulfide 3-8; N-terminus assumed
SMILES: CC[C@H](C)[C@H](NC(=O)[C@@H]1CCCN1C(=O)CNC(=O)[C@H](Cc1ccccc1)NC(=O)[C@H](CC(N)=O)NC(=O)C(C)(C)NC(=O)[C@H](CO)NC(=O)[C@H](CO)NC(=O)[C@H](Cc1c[nH]cn1)NC(=O)[C@@H](NC(=O)[C@H](CC(C)C)NC(=O)[C@H](Cc1ccccc1)NC(=O)[C@H](CC(N)=O)NC(=O)[C@H](C)NC(=O)[C@H](CC(C)C)NC(=O)[C@H](CCCNC(=N)N)NC(=O)[C@H](CCC(N)=O)NC(=O)[C@@H](NC(=O)[C@H](C)NC(=O)[C@@H]1CSSC[C@H](NC(=O)[C@H](CCCCN)NC(=O)[C@@H](N)CCCCNC(=O)CC[C@H](NC(=O)CCCCCCCCCCCCCCCCC(=O)O)C(=O)O)C(=O)N[C@@H](CC(N)=O)C(=O)N[C@@H]([C@@H](C)O)C(=O)N[C@@H](C)C(=O)N[C@@H]([C@@H](C)O)C(=O)N1)[C@@H](C)O)C(C)C)C(=O)N[C@@H](CC(C)C)C(=O)N1CCC[C@H]1C(=O)N1CCC[C@H]1C(=O)N[C@H](C(=O)N[C@@H](CC(N)=O)C(=O)N[C@H](C(=O)NCC(=O)N[C@@H](CO)C(=O)NC(C)(C)C(=O)N[C@H](C(=O)N[C@@H](Cc1ccc(O)cc1)C(N)=O)[C@@H](C)O)C(C)C)[C@@H](C)O

In the first experiment the target is T1, human calcitonin receptor. The experiment can be described thus: cell-based or functional assay.
On to B1, for which the “EC50 (cAMP production)” value is 2.76 nM.
Same read-out and setting: under B2 stands 6.34 nM; under B3, 2.97 nM; under B4, 4.28 nM.

Another experiment concerns the target T2, human amylin receptor (calcitonin …). The experiment can be described thus: cell-based or functional assay.
For the molecule B1, the “EC50 (cAMP production)” value was found to be 0.404 nM and the “Ratio (EC50 hCTR / EC50 hAMYR3)” value amounted to 7.
Turning to B2, the “EC50 (cAMP production)” value turned out to be 0.599 nM and the “Ratio (EC50 hCTR / EC50 hAMYR3)” value stood at 11.
On to B3, for which the “EC50 (cAMP production)” value amounted to 0.407 nM and the “Ratio (EC50 hCTR / EC50 hAMYR3)” value is 7.
In the case of B4, the “EC50 (cAMP production)” value is 0.514 nM and the “Ratio (EC50 hCTR / EC50 hAMYR3)” value amounted to 8.
